According to paper PMC3393671:
Where a chain is given by its changes, count along the chain named. Numbers in names are those of the source.

B1: GST-Irga6, Q9QZ85 T102D (protein)
chain: MGQLFSSPKSDENNDLPSSFTGYFKKFNTGRKIISQEILNLIELRMRKGNIQLTNSAISDALKEIDSSVLNVAVTGETGSGKSSFINTLRGIGNEEEGAAKDGVVEVTMERHPYKHPNIPNVVFWDLPGIGSTNFPPNTYLEKMKFYEYDFFIIISATRFKKNDIDIAKAISMMKKEFYFVRTKVDSDITNEADGKPQTFDKEKVLQDIRLNCVNTFRENGIAEPPIFLLSNKNVCHYDFPVLMDKLISDLPIYKRHNFMVSLPNITDSVIEKKRQFLKQRIWLEGFAADLVNIIPSLTFLLDSDLETLKKSMKFYRTVFGVDETSLQRLARDWEIEVDQVEAMIKSPAVFKPTDEETIQERLSRYIQEFCLANGYLLPKNSFLKEIFYLKYYFLDMVTEDAKTLLKEICL
B2: GST-Irga6, Q9QZ85 N220R (protein)
chain: B1 chain with D102T, N220R
B3: GST-Irga6, Q9QZ85 E142R (protein)
chain: B1 chain with D102T, E142R
B4: GST-Irga6, Q9QZ85 K196D (protein)
chain: B1 chain with D102T, K196D
B5: GST-Irga6, Q9QZ85 K169E (protein)
chain: B1 chain with D102T, K169E
B6: GST-Irga6, Q9QZ85 G195R (protein)
chain: B1 chain with D102T, G195R
B7: GST-Irga6, Q9QZ85 Q198E (protein)
chain: B1 chain with D102T, Q198E
B8: GST-Irga6, Q9QZ85 T108D (protein)
chain: B1 chain with D102T, T108D
B9: GST-Irga6, Q9QZ85 G103R (protein)
chain: B1 chain with D102T, G103R
B10: GST-Irga6, Q9QZ85 N191R (protein)
chain: B1 chain with D102T, N191R
B11: GST-Irga6, Q9QZ85 C213R (protein)
chain: B1 chain with D102T, C213R
B12: GST-Irga6, Q9QZ85 V205R (protein)
chain: B1 chain with D102T, V205R

These binders were tested against ROP5 of T. gondii strain RH-YFP (isoforms not told apart), F2YGR7 (assay: pull-down (quantitated Western blot)). Details: chain shown with the change; 25 µg protein/100 µl 1:1 bead suspension; RH-YFP strain T. gondii lysates; 3E2 antibody (anti-ROP5); GST signal subtracted; parent: est. 100; read off a plot.
Sequence of ROP5 of T. gondii strain RH-YFP (isoforms not told apart), F2YGR7 (F2YGR7 25-549): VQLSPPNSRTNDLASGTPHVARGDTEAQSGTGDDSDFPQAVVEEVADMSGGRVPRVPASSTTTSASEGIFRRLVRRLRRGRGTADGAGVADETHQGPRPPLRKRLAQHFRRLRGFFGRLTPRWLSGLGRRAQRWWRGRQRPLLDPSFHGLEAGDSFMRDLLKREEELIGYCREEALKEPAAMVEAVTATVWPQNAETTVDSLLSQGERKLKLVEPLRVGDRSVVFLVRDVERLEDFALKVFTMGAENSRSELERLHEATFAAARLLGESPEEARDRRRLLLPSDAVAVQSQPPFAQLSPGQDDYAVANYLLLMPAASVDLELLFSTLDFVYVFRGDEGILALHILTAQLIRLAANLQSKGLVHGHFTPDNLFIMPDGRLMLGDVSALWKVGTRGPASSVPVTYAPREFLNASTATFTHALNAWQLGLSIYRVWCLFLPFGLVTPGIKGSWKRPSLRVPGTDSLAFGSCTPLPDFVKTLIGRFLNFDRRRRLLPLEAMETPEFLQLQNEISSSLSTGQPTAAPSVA

Going from B1 to B2, the percent of parent (% of wild-type intensity) falls from 110 to 20.

First: B3
Second: B4
The percent of parent (% of wild-type intensity) of the first is higher: 73 for the first, 1.8 for the second.

Compared with B5, B6 is lower in percent of parent (% of wild-type intensity): 22 for the first, 6.5 for the second.

First: B7
Second: B8
The percent of parent (% of wild-type intensity) of the first is lower: 32 for the first, 77 for the second.

First: B9
Second: B10
The percent of parent (% of wild-type intensity) of the first is higher: 43 for the first, 30 for the second.

Going from B11 to B12, the percent of parent (% of wild-type intensity) rises from 3.3 to 10.
